Experimental data taken from patent publication US20240301031A1 (JIANGSU HENGRUI PHARMACEUTICALS, published 2024).

Legend:
[1] = target: T1, human BAFF (10056-HNCH, Sino biological) (human, UniProt Q9Y275 134-285); test: competition ELISA: biotin-labeled BAFF to coated BAFF-R
T1 construct: Bought protein
Outline: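 Receptor coated at 2 μg/mL in PBS pH 7.4 overnight at 4° C and casein-blocked; fixed-concentration biotinylated ligand preincubated 30 min at 37° C with serially diluted antibody/fusion protein, then bound 1.5 h at 37° C. Streptavidin-HRP/TMB read at 450 nm; IC₅₀ from fitted binding-inhibition curves.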

[2] = target: T1, human BAFF (10056-HNCH, Sino biological); test: competition ELISA: biotin-labeled BAFF to coated TACI
Description: A receptor protein was diluted to 2 μg/mL with PBS at pH 7.4 (BasalMedia, B320) and added to a 96-well microplate (Corning, 3590) at 100 μL/well. The plate was incubated at 4° C. overnight. After the liquid was discarded, 200 μL of 1% Casein blocking solution (Thermo, 37528) was added to each well for blocking, and the plate was incubated at 37° C. for 2 h. After the blocking was completed, the blocking solution was discarded, and the plate was washed 3 times with a PBST buffer (PBS at pH 7.4 containing 0.1% tween-20) for later use. A biotin-labeled ligand protein at a fixed concentration was mixed with the antibody or fusion protein diluted in gradient, pre-incubated at 37° C. for 30 min, and added to a blocked microplate. The plate was incubated at 37° C. for 1.5 h. After the incubation was completed, the plate was washed 3 times with PBST. 100 μL of streptavidin-HRP (Invitrogen, 434323, diluted at a ratio of 1:4000) was added to each well, and the plate was incubated at 37° C. for 1 h. The supernatant was removed, and the plate was washed 3 times with PBST. […] The plate was read for absorbance values at 450 nm on a microplate reader, the curves for the inhibition of the binding of the ligands to the receptors were fitted with software, and the IC₅₀ values were calculated. […]

[3] = target: T2, human APRIL (5860-AP-010/CF, R&D Systems) (human, UniProt O75888 115-250, limits assumed); test: SPR (Biacore), sample captured on Protein A, antigen flowed, 1:1 fit
T2 construct: Bought protein
T2 sequence (looked up): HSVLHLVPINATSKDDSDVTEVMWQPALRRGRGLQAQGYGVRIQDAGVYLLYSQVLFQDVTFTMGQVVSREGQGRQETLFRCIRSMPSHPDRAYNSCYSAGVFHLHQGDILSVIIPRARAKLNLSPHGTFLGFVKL

[4] = target: T3, mouse APRIL (7907-AP/CF, R&D Systems) (mouse, UniProt Q9D777 96-241, limits assumed); test: as above
T3 construct: Bought protein
T3 sequence (looked up): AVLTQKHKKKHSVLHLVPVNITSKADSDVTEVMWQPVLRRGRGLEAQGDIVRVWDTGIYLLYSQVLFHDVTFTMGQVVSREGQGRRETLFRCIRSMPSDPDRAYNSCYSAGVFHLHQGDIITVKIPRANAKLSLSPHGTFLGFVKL

[5] = target: T1, human BAFF (10056-HNCH, Sino biological); test: as above
[6] = target: T4, cynomolgus monkey APRIL (APR-CM410B, Kactus) (cynomolgus monkey); test: as above
T4 chain: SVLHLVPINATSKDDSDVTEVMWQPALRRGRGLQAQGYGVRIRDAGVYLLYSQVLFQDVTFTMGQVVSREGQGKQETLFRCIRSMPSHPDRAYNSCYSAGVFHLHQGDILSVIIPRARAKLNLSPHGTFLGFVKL

- IC50 [1]: 27.5 nM
- IC50 [2]: 0.779 nM
- Kd [3]: 0.0281 nM
- koff [3]: 0.000658 s⁻¹
- kon [3]: 2.34e+07 M⁻¹ s⁻¹
- Kd [4]: 0.00671 nM
- koff [4]: 1.69e-05 s⁻¹
- kon [4]: 2.52e+06 M⁻¹ s⁻¹
- Kd [5]: 0.186 nM
- koff [5]: 0.00018 s⁻¹
- kon [5]: 964000 M⁻¹ s⁻¹
- Kd [6]: 0.0436 nM
- koff [6]: 0.000507 s⁻¹
- kon [6]: 1.16e+07 M⁻¹ s⁻¹
B1: RCT-18 (Telitacicept) (Fc fusion)
chain: SRVDQEERFPQGLWTGVAMRSCPEEQYWDPLLGTCMSCKTICNHQSQRTCAAFCRSLSCRKEQGKFYDHLLRDCISCASICGQHPKQCAYFCENKLRSPVNLPPELDKTHTCPPCPAPEAEGAPSVFLFPPKPKDTLMISRTPEVTCVVVDVSHEDPEVKFNWYVDGVEVHNAKTKPREEQYNSTYRVVSVLTVLHQDWLNGKEYKCKVSNKALPSSIEKTISKAKGQPREPQVYTLPPSRDELTKNQVSLTCLVKGFYPSDIAVEWESNGQPENNYKTTPPVLDSDGSFFLYSKLTVDKSRWQQGNVFSCSVMHEALHNHYTQKSLSLSPGK
notes: Positive control; TACI part is positions 13-118 of the extracellular region of human TACI, the rest is Fc
